Results on two molecules are retold here after publication PMC12700824 (Nature Structural & Molecular Biology, 2025).

Positions count from the first letter of the chain named.

Series [1] deals with the molecule itself. As to the kind of experiment: dynamic light scattering (DLS); FAM118B24–334 WT at 10 µM in PBS pH 7.4, 20 °C.
Series [2] concerns the molecule itself. As to the kind of experiment: SEC; analytical SEC, Superdex Increase 10/300 GL, 50 mM Tris pH 8, 200 mM NaCl, 0.5 mM TCEP; injection concentrations up to 20 µM (mutant mixture: 10 µM each); sizes are coarse estimates from globular standards.
A further series addresses T1, FAM118B24–334-F122R (human, UniProt Q9BPY3 24-334, F122R).
T1 construct: also called head-surface mutant; not shown: His6, C-terminal, kept
As to the kind of experiment: ITC; 25 °C, PBS; FAM118B24–334-L32R in the syringe at 500 µM titrated into FAM118B24–334-F122R in the cell at 50 µM. As to conditions: both partners purified. On the technique in general: Isothermal titration calorimetry measures the heat released or taken up as one component is titrated into another.

One may read the stoichiometry N as a count of units in the complex or per binding partner.

B1: human FAM118B residues 24-334, C-terminally His-tagged, wild type (domain or fragment, UniProt Q9BPY3 24-334, looked up)
chain: PTKKPRKLLPSLKTKKPRELVLVIGTGISAAVAPQVPALKSWKGLIQALLDAAIDFDLLEDEESKKFQKCLHEDKNLVHVAHDLIQKLSPRTSNVRSTFFKDCLYEVFDDLESKMEDSGKQLLQSVLHLMENGALVLTTNFDNLLELYAADQGKQLESLDLTDEKKVLEWAQEKRKLSVLHIHGVYTNPSGIVLHPAGYQNVLRNTEVMREIQKLYENKSFLFLGCGWTVDDTTFQALFLEAVKHKSDLEHFMLVRRGDVDEFKKLRENMLDKGIKVISYGDDYADLPEYFKRLTCEISTRGTSAGMVREG
notes: not shown: His6, C-terminal, kept
For B1, the “stoichiometry N” value in series [1] is < 10 subunits; in series [2] it was > 8 protomers.

B2: FAM118B24–334-L32R (domain or fragment, human, UniProt Q9BPY3 24-334, looked up)
chain: B1 chain with L9R
notes: also called tail-surface mutant; not shown: His6, C-terminal, kept
Take B2: in the series with FAM118B24–334-F122R, the “stoichiometry N” value is ~1.
